4 molecules from EP4477665A1 (AffyXell Therapeutics Co., Ltd., dated 2024) can be followed below.

One experiment addresses T1, human serum albumin (human, UniProt P02768 25-609).
T1 construct: also called HSA
Put plainly: bridging ELISA: capture on coated hCD40L, 10 uM HSA, anti-HSA detection.

Experiment [1] deals with T2, hCD40L expressed on hCD40L-HEK-293 cells (Crown Biosciences, C2041) (human, UniProt P29965 1-261).
T2 construct: whole, on cells; also called huCD40L HEK293
T2 sequence (looked up): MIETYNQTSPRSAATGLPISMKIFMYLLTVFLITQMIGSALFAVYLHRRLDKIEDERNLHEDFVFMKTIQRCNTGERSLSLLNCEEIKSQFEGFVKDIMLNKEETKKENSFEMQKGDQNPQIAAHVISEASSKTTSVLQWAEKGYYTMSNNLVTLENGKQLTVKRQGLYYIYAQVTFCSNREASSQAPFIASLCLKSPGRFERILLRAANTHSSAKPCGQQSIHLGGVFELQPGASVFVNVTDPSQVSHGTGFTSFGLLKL
Briefly: flow cytometry on hCD40L-HEK293 cells, doses 0.7 to 500 nM. For orientation: Flow cytometry measures light scatter and fluorescence of single cells or particles in a stream.

The target of experiment [2] is T3, human CD40L (hCD40L antigen) (human, UniProt P29965 113-261, limits assumed).
T3 sequence (looked up): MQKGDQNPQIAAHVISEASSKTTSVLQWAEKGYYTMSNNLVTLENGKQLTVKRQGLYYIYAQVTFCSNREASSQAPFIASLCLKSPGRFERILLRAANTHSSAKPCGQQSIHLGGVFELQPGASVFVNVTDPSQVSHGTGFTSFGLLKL
Put plainly: cell-based or functional assay.

T1 sequence (P02768 25-609): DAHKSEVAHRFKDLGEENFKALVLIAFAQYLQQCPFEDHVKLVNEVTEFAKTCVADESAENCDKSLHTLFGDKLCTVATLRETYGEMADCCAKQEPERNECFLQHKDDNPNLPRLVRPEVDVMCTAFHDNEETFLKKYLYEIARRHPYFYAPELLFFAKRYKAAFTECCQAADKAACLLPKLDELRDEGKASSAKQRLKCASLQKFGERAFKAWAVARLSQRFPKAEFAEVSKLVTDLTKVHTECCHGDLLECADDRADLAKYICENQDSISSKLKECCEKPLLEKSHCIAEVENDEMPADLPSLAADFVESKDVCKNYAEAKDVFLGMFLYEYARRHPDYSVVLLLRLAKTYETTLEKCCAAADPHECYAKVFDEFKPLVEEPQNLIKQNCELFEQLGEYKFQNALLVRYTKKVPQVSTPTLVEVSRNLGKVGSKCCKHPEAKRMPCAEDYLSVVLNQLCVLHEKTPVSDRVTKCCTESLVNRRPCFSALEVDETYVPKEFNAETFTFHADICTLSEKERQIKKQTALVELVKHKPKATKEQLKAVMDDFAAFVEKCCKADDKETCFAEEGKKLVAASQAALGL

B1: clone-230 XT76 (designed binder)
chain: IPGGLSEAKPATPEIQEIVDKVKPQLEEKTGETYGKLEAVQYKTQVVHYYVHYNDQGTNYYIKVRAGDNKYMHLKVFKSLWGENLFAKWEDLVLTGYQVDKNKDDELTGFAEAAAKEAAAKEAAAKEAAAKEAAAKEAAAKMIPGGLSEAKPATPEIQEIVDKVKPQLEEKTGETYGKLEAVQYKTQVVHYYVHYNDQGTNYYIKVRAGDNKYMHLKVFKSLWGENLFAKWEDLVLTGYQVDKNKDDELTGFAEAAAKEAAAKEAAAKEAAAKEAAAKEAAAKMIPGGLSEAKPATPEIQEIVDKVKPQLEEKTGETYGKLEAVQYKTQVVHYYVHYNDQGTNYYIKVRAGDNKYMHLKVFKSLWGENLFAKWEDLVLTGYQVDKNKDDELTGFAEAAAKEAAAKEAAAKEAAAKEAAAKEAAAKMIPGGLSEAKPATPEIQEIVDKVKPQLEEKTGETYGKLEAVQYKTQVVHYYVHYNDQGTNYYIKVRAGDNKYMHLKVFKSLWGENLFAKWEDLVLTGYQVDKNKDDELTGFAEAAAKEAAAKEAAAKEAAAKEAAAKEAAAKMIPRGLSEAKPATPEIQEIVDKVKPQLEEKTGETYGKLEAVQYKTQVLANFFQRRWPGSTNYYIKVRAGDNKYMHLKVFNGPWKFRNTDRGADRVLTGYQVDKNKDDELTGF
Regarding B1, in the experiment with human serum albumin, the binding result is “binds”.

B2: clone 230 (designed binder)
chain: MIPGGLSEAKPATPEIQEIVDKVKPQLEEKTGETYGKLEAVQYKTQVVHYYVHYNDQGTNYYIKVRAGDNKYMHLKVFKSLWGENLFAKWEDLVLTGYQVDKNKDDELTGF
Regarding B2, in experiment [1], the binding result is recorded as “binds”.

B3: clone 230 DJ (designed binder)
chain: IPGGLSEAKPATPEIQEIVDKVKPQLEEKTGETYGKLEAVQYKTQVVHYYVHYNDQGTNYYIKVRAGDNKYMHLKVFKSLWGENLFAKWEDLVLTGYQVDKNKDDELTGFGGGGSGGGGSGGGGSGGGGSGGGGSGGGGSMIPGGLSEAKPATPEIQEIVDKVKPQLEEKTGETYGKLEAVQYKTQVVHYYVHYNDQGTNYYIKVRAGDNKYMHLKVFKSLWGENLFAKWEDLVLTGYQVDKNKDDELTGFGGGGSGGGGSGGGGSGGGGSGGGGSGGGGSMIPGGLSEAKPATPEIQEIVDKVKPQLEEKTGETYGKLEAVQYKTQVVHYYVHYNDQGTNYYIKVRAGDNKYMHLKVFKSLWGENLFAKWEDLVLTGYQVDKNKDDELTGF
As to B3, the “EC50, HEK-Blue cell-based assay” value in experiment [2] is 5.99 nM.

B4: clone-230 XT75 (designed binder)
chain: IPGGLSEAKPATPEIQEIVDKVKPQLEEKTGETYGKLEAVQYKTQVVHYYVHYNDQGTNYYIKVRAGDNKYMHLKVFKSLWGENLFAKWEDLVLTGYQVDKNKDDELTGFAEAAAKEAAAKEAAAKEAAAKEAAAKEAAAKMIPGGLSEAKPATPEIQEIVDKVKPQLEEKTGETYGKLEAVQYKTQVVHYYVHYNDQGTNYYIKVRAGDNKYMHLKVFKSLWGENLFAKWEDLVLTGYQVDKNKDDELTGFAEAAAKEAAAKEAAAKEAAAKEAAAKEAAAKMIPGGLSEAKPATPEIQEIVDKVKPQLEEKTGETYGKLEAVQYKTQVVHYYVHYNDQGTNYYIKVRAGDNKYMHLKVFKSLWGENLFAKWEDLVLTGYQVDKNKDDELTGFAEAAAKEAAAKEAAAKEAAAKEAAAKEAAAKMIPRGLSEAKPATPEIQEIVDKVKPQLEEKTGETYGKLEAVQYKTQVLANFFQRRWPGSTNYYIKVRAGDNKYMHLKVFNGPWKFRNTDRGADRVLTGYQVDKNKDDELTGF
As to B4, in the experiment with human serum albumin, the binding result is listed as “binds”.
